According to IntAct's records for PubMed 22792074:

B1: Fanconi anemia group J protein (Homo sapiens), Q9BX63 (parent)
chain: MSSMWSEYTIGGVKIYFPYKAYPSQLAMMNSILRGLNSKQHCLLESPTGSGKSLALLCSALAWQQSLSGKPADEGVSEKAEVQLSCCCACHSKDFTNNDMNQGTSRHFNYPSTPPSERNGTSSTCQDSPEKTTLAAKLSAKKQASIYRDENDDFQVEKKRIRPLETTQQIRKRHCFGTEVHNLDAKVDSGKTVKLNSPLEKINSFSPQKPPGHCSRCCCSTKQGNSQESSNTIKKDHTGKSKIPKIYFGTRTHKQIAQITRELRRTAYSGVPMTILSSRDHTCVHPEVVGNFNRNEKCMELLDGKNGKSCYFYHGVHKISDQHTLQTFQGMCKAWDIEELVSLGKKLKACPYYTARELIQDADIIFCPYNYLLDAQIRESMDLNLKEQVVILDEAHNIEDCARESASYSVTEVQLRFARDELDSMVNNNIRKKDHEPLRAVCCSLINWLEANAEYLVERDYESACKIWSGNEMLLTLHKMGITTATFPILQGHFSAVLQKEEKISPIYGKEEAREVPVISASTQIMLKGLFMVLDYLFRQNSRFADDYKIAIQQTYSWTNQIDISDKNGLLVLPKNKKRSRQKTAVHVLNFWCLNPAVAFSDINGKVQTIVLTSGTLSPMKSFSSELGVTFTIQLEANHIIKNSQVWVGTIGSGPKGRNLCATFQNTETFEFQDEVGALLLSVCQTVSQGILCFLPSYKLLEKLKERWLSTGLWHNLELVKTVIVEPQGGEKTNFDELLQVYYDAIKYKGEKDGALLVAVCRGKVSEGLDFSDDNARAVITIGIPFPNVKDLQVELKRQYNDHHSKLRGLLPGRQWYEIQAYRALNQALGRCIRHRNDWGALILVDDRFRNNPSRYISGLSKWVRQQIQHHSTFESALESLAEFSKKHQKVLNVSIKDRTNIQDNESTLEVTSLKYSTSPYLLEAASHLSPENFVEDEAKICVQELQCPKIITKNSPLPSSIISRKEKNDPVFLEEAGKAEKIVISRSTSPTFNKQTKRVSWSSFNSLGQYFTGKIPKATPELGSSENSASSPPRFKTEKMESKTVLPFTDKCESSNLTVNTSFGSCPQSETIISSLKIDATLTRKNHSEHPLCSEEALDPDIELSLVSEEDKQSTSNRDFETEAEDESIYFTPELYDPEDTDEEKNDLAETDRGNRLANNSDCILAKDLFEIRTIKEVDSAREVKAEDCIDTKLNGILHIEESKIDDIDGNVKTTWINELELGKTHEIEIKNFKPSPSKNKGMFPGFK

Variants of: B1
Details: with brca1_human BRCA1, P38398
Chain of brca1_human BRCA1, P38398 (P38398 whole entry, looked up): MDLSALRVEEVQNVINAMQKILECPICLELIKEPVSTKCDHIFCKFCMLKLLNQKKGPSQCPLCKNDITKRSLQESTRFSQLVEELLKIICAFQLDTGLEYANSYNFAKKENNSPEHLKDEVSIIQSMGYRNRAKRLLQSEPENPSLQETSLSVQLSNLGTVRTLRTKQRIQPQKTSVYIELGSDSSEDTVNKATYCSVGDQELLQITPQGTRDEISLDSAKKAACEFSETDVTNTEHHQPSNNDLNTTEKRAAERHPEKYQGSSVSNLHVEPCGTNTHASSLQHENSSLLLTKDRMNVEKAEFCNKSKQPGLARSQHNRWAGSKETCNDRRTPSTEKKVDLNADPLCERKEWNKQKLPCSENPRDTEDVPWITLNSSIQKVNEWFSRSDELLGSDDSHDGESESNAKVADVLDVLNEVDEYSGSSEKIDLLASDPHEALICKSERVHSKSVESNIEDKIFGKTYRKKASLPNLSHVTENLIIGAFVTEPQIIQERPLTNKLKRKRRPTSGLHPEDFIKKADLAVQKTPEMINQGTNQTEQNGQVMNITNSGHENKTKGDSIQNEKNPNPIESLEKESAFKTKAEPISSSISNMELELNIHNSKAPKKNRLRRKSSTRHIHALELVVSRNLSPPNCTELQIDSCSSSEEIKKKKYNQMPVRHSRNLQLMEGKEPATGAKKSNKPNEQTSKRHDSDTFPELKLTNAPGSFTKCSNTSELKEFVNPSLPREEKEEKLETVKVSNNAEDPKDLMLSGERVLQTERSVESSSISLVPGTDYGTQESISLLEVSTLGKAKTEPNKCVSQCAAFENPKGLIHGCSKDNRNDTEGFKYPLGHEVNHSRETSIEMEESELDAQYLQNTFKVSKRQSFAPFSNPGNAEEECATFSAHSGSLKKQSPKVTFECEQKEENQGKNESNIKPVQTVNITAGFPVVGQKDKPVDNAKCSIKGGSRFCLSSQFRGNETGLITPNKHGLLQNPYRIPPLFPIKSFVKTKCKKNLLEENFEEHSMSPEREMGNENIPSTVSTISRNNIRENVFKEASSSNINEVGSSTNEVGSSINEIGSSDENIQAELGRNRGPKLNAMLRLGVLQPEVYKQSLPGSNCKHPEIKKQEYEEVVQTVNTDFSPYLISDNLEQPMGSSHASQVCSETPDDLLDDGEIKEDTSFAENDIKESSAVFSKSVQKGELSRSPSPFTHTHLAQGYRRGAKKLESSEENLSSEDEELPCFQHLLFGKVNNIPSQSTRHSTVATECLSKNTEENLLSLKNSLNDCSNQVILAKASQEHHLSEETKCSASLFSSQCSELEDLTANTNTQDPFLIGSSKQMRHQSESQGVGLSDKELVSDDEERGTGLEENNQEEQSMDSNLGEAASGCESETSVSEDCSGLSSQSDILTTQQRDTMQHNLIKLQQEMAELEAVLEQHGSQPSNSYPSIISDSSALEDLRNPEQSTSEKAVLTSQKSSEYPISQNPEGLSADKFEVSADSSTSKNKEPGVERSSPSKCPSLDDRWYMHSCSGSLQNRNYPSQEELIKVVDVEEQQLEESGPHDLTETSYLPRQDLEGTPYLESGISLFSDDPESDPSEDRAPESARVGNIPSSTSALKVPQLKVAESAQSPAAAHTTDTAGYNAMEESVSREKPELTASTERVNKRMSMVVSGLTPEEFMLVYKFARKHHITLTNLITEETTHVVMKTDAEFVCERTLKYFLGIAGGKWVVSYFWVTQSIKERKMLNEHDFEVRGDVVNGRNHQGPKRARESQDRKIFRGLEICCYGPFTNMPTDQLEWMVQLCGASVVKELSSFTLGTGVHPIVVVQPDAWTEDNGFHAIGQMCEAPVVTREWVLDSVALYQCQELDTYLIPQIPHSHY

effect of a mutation on the interaction | Variant
with no effect | K1249R
with no effect | K1249Q
